Reference: article PMC3717379 (Biochemistry, 2013)
Where two headings read alike, the source gives them in different places. No end group written: not given here. IANBD = IANBD fluorescent probe (code IAN) attached to the cysteine

What was measured:
[1] = molecular target: SecA-340C (Escherichia coli, UniProt P10408, C885S/C887S/C896S/C98S/T340C); assay type: binding
[2] = molecular target: wildtype SecA (Escherichia coli, UniProt P10408); test: Fluorescence anisotropy binding of IAN-labeled signal peptide to wildtype SecA
[3] = molecular target: SecA-458C (Escherichia coli, UniProt P10408, C885S/C887S/C896S/C98S/S458C); assay type: binding
[4] = molecular target: SecA-506C (Escherichia coli, UniProt P10408, C885S/C887S/C896S/C98S/M506C); assay type: binding
[5] = molecular target: SecA (Escherichia coli) (UniProt P10408); conditions: cited from earlier work
[6] = molecular target: SecA (Escherichia coli) (UniProt P10408); conditions: cited from earlier work; remark: listed apart in the source
[7] = molecular target: monocysteine SecA mutant SecA-402C (E. coli) (UniProt P10408); test: FRET or BRET
[8] = molecular target: monocysteine SecA mutant SecA-59C (E. coli) (UniProt P10408); test: FRET or BRET
[9] = molecular target: SP22, 22 residue long E. coli alkaline phosphatase signal peptide with cysteine at position 22 (E. coli); test: fluorescence polarisation
[10] = molecular target: monocysteine SecA mutant SecA-340C (E. coli) (UniProt P10408); test: FRET or BRET
[11] = molecular target: monocysteine SecA mutant SecA-458C (E. coli) (UniProt P10408); test: FRET or BRET
[12] = molecular target: monocysteine SecA mutant SecA-506C (E. coli) (UniProt P10408); test: FRET or BRET
[13] = molecular target: monocysteine SecA mutant SecA-696C (E. coli) (UniProt P10408); test: FRET or BRET
[14] = molecular target: wildtype SecA (Escherichia coli) (E. coli, UniProt P10408 1-901); test: fluorescence polarisation

MCKQSTIALALLPLLYTPVTKARTPEMPVLENRAAQGDITA-NH2 [SP41]
Kd [1]: 6200 ± 4300 nM
Kd [2]: 6200 ± 800 nM
Kd [3]: 4800 ± 600 nM
Kd [4]: 6300 ± 1000 nM

MKQSTIALALLPLLFTPVTKAC-NH2 [SP22]
Kd [1]: 1100 ± 400 nM
Kd [3]: 3000 ± 1700 nM
Kd [4]: 1500 ± 700 nM

SecA (from UniProt P10408)
Kd [5]: 2200 nM
Kd [6]: 1 nM

monocysteine SecA mutant SecA-59C (from UniProt P10408 1-901) (natural protein)
E FRET (IAE-IAN dye pair) [7]: 0.4
E FRET (AF568-AF647 dye pair) [8]: 1
E FRET (IAE-IAN dye pair) [8]: 0.38

monocysteine SecA mutant SecA-340C (from UniProt P10408 1-901) (natural protein)
Kd [9]: 1100 nM
E FRET (AF488-AF568 dye pair) [10]: 0.78
E FRET (IAE-IAN dye pair) [10]: 0.12
E FRET with SP22 (AF488-AF568 dye pair) [10]: 0.64
E FRET with SP41 (AF488-AF568 dye pair) [10]: 0.23

monocysteine SecA mutant SecA-402C (from UniProt P10408 1-901) (natural protein)
E FRET (AF488-AF568 dye pair) [7]: 0.31
E FRET (IAE-IAN dye pair) [7]: 0.19

monocysteine SecA mutant SecA-458C (from UniProt P10408 1-901) (natural protein)
Kd [9]: 3000 nM
E FRET with SP22 (AF488-AF568 dye pair) [11]: 0.45
E FRET with SP41 (AF488-AF568 dye pair) [11]: 0.45

monocysteine SecA mutant SecA-506C (from UniProt P10408 1-901) (natural protein)
Kd [9]: 1500 nM
E FRET with SP22 (AF568-AF647 dye pair) [12]: 0.67
E FRET with SP41 (AF568-AF647 dye pair) [12]: 0.69

monocysteine SecA mutant SecA-696C (from UniProt P10408 1-901) (natural protein)
Kd [9]: 2500 nM
E FRET (AF488-AF568 dye pair) [13]: 0.23
E FRET with SP22 (AF568-AF647 dye pair) [13]: 0.42
E FRET with SP41 (AF568-AF647 dye pair) [13]: 0.41

MKQSTIALALLPLLFTPVTKAC(IANBD)-NH2 [SP22, 22 residue long E. coli alkaline phosphatase signal peptide with cysteine at position 22]
Kd [14]: 1400 ± 200 nM
